This note sets out measurements from patent publication US20170119877A1.

The experiment concerns the target murine VISTA (V-domain Ig suppressor of T cell activation) on spleen cells / Ly6C+CD11b+ MDSCs of B6 mice (mouse) (UniProt Q9D659). The experiment can be described thus: cell-based or functional assay.
UniProt Q9D659, sequence (Q9D659 33-308): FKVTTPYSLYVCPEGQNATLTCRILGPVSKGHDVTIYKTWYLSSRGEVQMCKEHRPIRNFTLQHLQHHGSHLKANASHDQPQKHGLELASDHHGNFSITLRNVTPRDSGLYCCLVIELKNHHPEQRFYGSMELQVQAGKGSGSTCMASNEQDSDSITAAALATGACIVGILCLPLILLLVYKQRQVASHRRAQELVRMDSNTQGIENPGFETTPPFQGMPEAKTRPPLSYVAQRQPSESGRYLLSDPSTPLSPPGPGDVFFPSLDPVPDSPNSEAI

On to anti-VISTA mAb (13F3) (antibody), for which the blocking of MDSC suppression of B-cell responsiveness (3H-thymidine incorporation, α-CD40 + IL-4 stimulation) was found to be 50%; the blocking of MDSC suppression of B-cell responsiveness, corrected for control HIg worked out at 55%; the blocking of MDSC suppression of B-cell responsiveness, over several independent experiments is 65%.
